Source: paper doi:10.1101/2024.08.14.606984 (bioRxiv, 2024)

Target: the molecule itself
Assay: SEC

B1: GCN2^K619R, kinase dead mutant of human General Control Non-derepressible 2 (GCN2) (enzyme, UniProt Q9P2K8 1-1649, looked up)
chain: MAGGRGAPGRGRDEPPESYPQRQDHELQALEAIYGADFQDLRPDACGPVKEPPEINLVLYPQGLTGEEVYVKVDLRVKCPPTYPDVVPEIELKNAKGLSNESVNLLKSRLEELAKKHCGEVMIFELAYHVQSFLSEHNKPPPKSFHEEMLERRAQEEQQRLLEAKRKEEQEQREILHEIQRRKEEIKEEKKRKEMAKQERLEIASLSNQDHTSKKDPGGHRTAAILHGGSPDFVGNGKHRANSSGRSRRERQYSVCNSEDSPGSCEILYFNMGSPDQLMVHKGKCIGSDEQLGKLVYNALETATGGFVLLYEWVLQWQKKMGPFLTSQEKEKIDKCKKQIQGTETEFNSLVKLSHPNVVRYLAMNLKEQDDSIVVDILVEHISGVSLAAHLSHSGPIPVHQLRRYTAQLLSGLDYLHSNSVVHKVLSASNVLVDAEGTVKITDYSISKRLADICKEDVFEQTRVRFSDNALPYKTGKKGDVWRLGLLLLSLSQGQECGEYPVTIPSDLPADFQDFLKKCVCLDDKERWSPQQLLKHSFINPQPKMPLVEQSPEDSEGQDYVETVIPSNRLPSAAFFSETQRQFSRYFIEFEELQLLGKGAFGAVIKVQNKLDGCCYAVRRIPINPASRQFRRIKGEVTLLSRLHHENIVRYYNAWIERHERPAGPGTPPPDSGPLAKDDRAARGQPASDTDGLDSVEAAAPPPILSSSVEWSTSGERSASARFPATGPGSSDDEDDDEDEHGGVFSQSFLPASDSESDIIFDNEDENSKSQNQDEDCNEKNGCHESEPSVTTEAVHYLYIQMEYCEKSTLRDTIDQGLYRDTVRLWRLFREILDGLAYIHEKGMIHRDLKPVNIFLDSDDHVKIGDFGLATDHLAFSADSKQDDQTGDLIKSDPSGHLTGMVGTALYVSPEVQGSTKSAYNQKVDLFSLGIIFFEMSYHPMVTASERIFVLNQLRDPTSPKFPEDFDDGEHAKQKSVISWLLNHDPAKRPTATELLKSELLPPPQMEESELHEVLHHTLTNVDGKAYRTMMAQIFSQRISPAIDYTYDSDILKGNFSIRTAKMQQHVCETIIRIFKRHGAVQLCTPLLLPRNRQIYEHNEAALFMDHSGMLVMLPFDLRIPFARYVARNNILNLKRYCIERVFRPRKLDRFHPKELLECAFDIVTSTTNSFLPTAEIIYTIYEIIQEFPALQERNYSIYLNHTMLLKAILLHCGIPEDKLSQVYIILYDAVTEKLTRREVEAKFCNLSLSSNSLCRLYKFIEQKGDLQDLMPTINSLIKQKTGIAQLVKYGLKDLEEVVGLLKKLGIKLQVLINLGLVYKVQQHNGIIFQFVAFIKRRQRAVPEILAAGGRYDLLIPQFRGPQALGPVPTAIGVSIAIDKISAAVLNMEESVTISSCDLLVVSVGQMSMSRAINLTQKLWTAGITAEIMYDWSQSQEELQEYCRHHEITYVALVSDKEGSHVKVKSFEKERQTEKRVLETELVDHVLQKLRTKVTDERNGREASDNLAVQNLKGSFSNASGLFEIHGATVVPIVSVLAPEKLSASTRRRYETQVQTRLQTSLANLHQKSSEIEILAVDLPKETILQFLSLEWDADEQAFNTTVKQLLSRLPKQRYLKLVCDEIYNIKVEKKVSVLFLYSYRDDYYRILF
stoichiometry N: 2
